T1: biotinylated CRH (human and mouse, not fully specified; biotinylated, position not stated)
T1 construct: also called Biotin-CRH; biotin-labeled CRH
T1 peptide: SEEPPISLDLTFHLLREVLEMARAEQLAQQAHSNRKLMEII

T2: corticotropin-releasing hormone (CRH) peptide (human and mouse (same sequence), not fully specified)
T2 peptide: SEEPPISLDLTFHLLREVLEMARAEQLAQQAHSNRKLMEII


Columns and labels:
biotinylated CRH = target: T1, biotinylated CRH; assay: Octet BLI, biotinylated CRH on SA sensor
Method: Octet® Red 96e was used for affinity measurement. Octet® running buffer was prepared by diluting kinetics buffer 10× (Fortebio, Cat #18-1105) in PBS according to the manufacturer's instructions. Two columns of SA sensors (Fortebio, Cat #18-5019) were hydrated in running buffer for 10 mins, one for ligand capturing and the other for reference. Antibodies were 2-fold diluted and added into a 96-well plate. […] After a 60-second baseline step, sensors were dipped into analyte and buffer wells successively, with the association and dissociation time of 180 seconds and 800 seconds, respectively. […] Signals of reference wells and reference sensors were subtracted by selecting “Double reference” before data fitting.

[1] = target: T2, corticotropin-releasing hormone (CRH) …; assay: cell-based or functional assay

Binder | Kd (biotinylated CRH) [nM] | koff (biotinylated CRH) [s⁻¹] | kon (biotinylated CRH) [M⁻¹ s⁻¹] | hCRHR1 Luciferase Reporter Assay IC50 [1] [nM] | mCrhr1 Luciferase Reporter Assay IC50 [1] [nM]
PR302334-27 (antibody, human IgG1, kappa, V domains shown, Humanized variant of PR302334) VH: EVQLVESGGGLVQPGGSLRLSCAASGFTFSTYAMSWVRQAPGKGLEWVASIRSGGTTYYPDSVKGRFTISRDNSKNSLYLQMNSLRAEDTAVYYCTRGIDWGQGTTVTVSS VL: DIQMTQSSLSASVSLGDRVTITCKASQSVNNDVAWYQQKPGKAPRLLIYYASNRYTGVPSRFSGSGSGTDFTFTISSLQPEDLATYFCQQDYSSWTFGGGTKVEIKR | < 0.001 | < 1e-07 | 302000 | – | –
PR302334-11 (antibody, human IgG1, kappa, V domains shown, Humanized variant of PR302334) VH: EVQLVESGGGLVQPGGSLRLSCAASGFTFSTYAMSWVRQAPGKGLEWVASIRSGGTTYYPDSVKGRFTISRDNSKNTLYLQMNSLRAEDTAVYYCTRGIDWGQGTTVTVSS VL: DIQMTQSSLSASVSLGDRVTITCKASQSVNNDVAWYQQKPGKAPRLLIYYASNRYTGVPSRFSGSGSGTDFTFTISSLQPEDIATYYCQQDYSSWTFGGGTKVEIKR | < 0.001 | < 1e-07 | 684000 | – | –
PR302334-25 (antibody, human IgG1, kappa, V domains shown, Humanized variant of PR302334) VH: EVQLVESGGGLVKPGGSLRLSCAASGFTFSTYAMSWVRQAPGKGLEWVASIRSGGTTYYPDSVKGRFTISRDNAKNSLYLQMNSLRAEDTAVYYCTRGIDWGQGTTVTVSS VL: DIQMTQSSLSASVSLGDRVTITCKASQSVNNDVAWYQQKPGKAPRLLIYYASNRYTGVPSRFSGSGSGTDFTFTISSLQPEDLATYFCQQDYSSWTFGGGTKVEIKR | < 0.001 | < 1e-07 | 285000 | – | –
PR302341-43 (antibody, human IgG1, kappa, V domains shown) VH: QVQLVQSGAEVKKPGASVKVSCKASGYTFTDYFMKWVRQAPGQGLEWMGVINPNNADIFYNQKFKGRVTMTVDKSTSTAYMELSSLRSEDTAVYYCARGTDRALFAYWGQGTLVTVSS VL: DVVMTQTPLSSPVTLGQPASISCRSGQSIVHSDGNTYLEWYQQRPGQPPRLLIYKVSNRFSGVPDRFSGSGAGTDFTLKISRVEAEDLGVYYCFQGSHIPWTFGGGTKVEIKR | – | – | – | 0.512 | 1.37
PR302341-44 (antibody, human IgG1, kappa, V domains shown) VH: QVQLVQSGAEVKKPGASVKVSCKASGYTFTDYFMKWVRQAPGQGLEWMGVINPNSGDIFYNQKFKGRVTMTVDKSTSTAYMELSSLRSEDTAVYYCARGTDRALFAYWGQGTLVTVSS VL: DVVMTQTPLSSPVTLGQPASISCRSGQSIVHSDGNTYLEWYQQRPGQPPRLLIYKVSNRFSGVPDRFSGSGAGTDFTLKISRVEAEDLGVYYCFQGSHIPWTFGGGTKVEIKR | – | – | – | 0.646 | –
PR302341-47 (antibody, human IgG1, kappa, V domains shown) VH: QVQLVQSGAEVKKPGASVKVSCKASGYTFTDYFMKWVRQAPGQGLEWMGVINPNSGDIFYNQKFKGRVTMTVDKSTSTAYMELSSLRSEDTAVYYCARGTDRALFAYWGQGTLVTVSS VL: DVVMTQTPLSSPVTLGQPASISCRSGQSIVHSDANTYLEWYQQRPGQPPRLLIYKVSNRFSGVPDRFSGSGAGTDFTLKISRVEAEDLGVYYCFQGSHIPWTFGGGTKVEIKR | – | – | – | 1.04 | 1.6
PR302341-46 (antibody, human IgG1, kappa, V domains shown) VH: QVQLVQSGAEVKKPGASVKVSCKASGYTFTDYFMKWVRQAPGQGLEWMGVINPNNADIFYNQKFKGRVTMTVDKSTSTAYMELSSLRSEDTAVYYCARGTDRALFAYWGQGTLVTVSS VL: DVVMTQTPLSSPVTLGQPASISCRSGQSIVHSDANTYLEWYQQRPGQPPRLLIYKVSNRFSGVPDRFSGSGAGTDFTLKISRVEAEDLGVYYCFQGSHIPWTFGGGTKVEIKR | – | – | – | 1.27 | 1.52
PR302341-45 (antibody, human IgG1, kappa, V domains shown) VH: QVQLVQSGAEVKKPGASVKVSCKASGYTFTDYFMKWVRQAPGQGLEWMGVINPNQGDIFYNQKFKGRVTMTVDKSTSTAYMELSSLRSEDTAVYYCARGTDRALFAYWGQGTLVTVSS VL: DVVMTQTPLSSPVTLGQPASISCRSGQSIVHSDGNTYLEWYQQRPGQPPRLLIYKVSNRFSGVPDRFSGSGAGTDFTLKISRVEAEDLGVYYCFQGSHIPWTFGGGTKVEIKR | – | – | – | 0.35 | 1.83
PR302341-49 (antibody, human IgG1, kappa, V domains shown) VH: QVQLVQSGAEVKKPGASVKVSCKASGYTFTDYFMKWVRQAPGQGLEWMGVINPNNADIFYNQKFKGRVTMTVDKSTSTAYMELSSLRSEDTAVYYCARGTDRALFAYWGQGTLVTVSS VL: DVVMTQTPLSSPVTLGQPASISCRSGQSIVHSEGNTYLEWYQQRPGQPPRLLIYKVSNRFSGVPDRFSGSGAGTDFTLKISRVEAEDLGVYYCFQGSHIPWTFGGGTKVEIKR | – | – | – | 1.34 | –
PR302341-48 (antibody, human IgG1, kappa, V domains shown) VH: QVQLVQSGAEVKKPGASVKVSCKASGYTFTDYFMKWVRQAPGQGLEWMGVINPNQGDIFYNQKFKGRVTMTVDKSTSTAYMELSSLRSEDTAVYYCARGTDRALFAYWGQGTLVTVSS VL: DVVMTQTPLSSPVTLGQPASISCRSGQSIVHSDANTYLEWYQQRPGQPPRLLIYKVSNRFSGVPDRFSGSGAGTDFTLKISRVEAEDLGVYYCFQGSHIPWTFGGGTKVEIKR | – | – | – | 0.507 | 1.46

Next, values leading:

Kd (biotinylated CRH) [nM] | koff (biotinylated CRH) [s⁻¹] | kon (biotinylated CRH) [M⁻¹ s⁻¹] | hCRHR1 Luciferase Reporter Assay IC50 [1] [nM] | mCrhr1 Luciferase Reporter Assay IC50 [1] [nM] | Binder
– | – | – | 0.128 | – | PR302341-67 (antibody, human IgG1, kappa, V domains shown) VH: QVQLVQSGAEVKKPGASVKVSCKASGYTFTDYFMKWVRQAPGQGLEWMGVINPNNGDIFYNQKFKGRVTMTVDKSTSTAYMELSSLRSEDTAVYYCARGTDRALFAYWGQGTLVTVSS VL: DVVMTQTPLSSPVTLGQPASISCRSGQSIVHSDANTYLEWYQQRPGQPPRLLIYKVSNRFSGVPDRFSGSGAGTDFTLKISRVEAEDLGVYYCFQGSHIPWTFGGGTKVEIKR
– | – | – | 1.66 | – | PR302341-51 (antibody, human IgG1, kappa, V domains shown) VH: QVQLVQSGAEVKKPGASVKVSCKASGYTFTDYFMKWVRQAPGQGLEWMGVINPNQGDIFYNQKFKGRVTMTVDKSTSTAYMELSSLRSEDTAVYYCARGTDRALFAYWGQGTLVTVSS VL: DVVMTQTPLSSPVTLGQPASISCRSGQSIVHSEGNTYLEWYQQRPGQPPRLLIYKVSNRFSGVPDRFSGSGAGTDFTLKISRVEAEDLGVYYCFQGSHIPWTFGGGTKVEIKR
– | – | – | 0.105 | 3.19 | PR302341-55 (antibody, human IgG1, kappa, V domains shown) VH: QVQLVQSGAEVKKPGASVKVSCKASGYTFTDYFMKWVRQAPGQRLEWMGVINPNNADIFYNQKFKGRVTITRDTSASTAYMELSSLRSEDTAVYYCARGTDRALFAYWGQGTLVTVSS VL: DVVMTQSPLSLPVTLGQPASISCRSGQSIVHSDGNTYLEWYQQRPGQSPRLLIYKVSNRFSGVPDRFSGSGSGTDFTLKISRVEAEDLGVYYCFQGSHIPWTFGGGTKVEIKR
– | – | – | 0.732 | 4.09 | PR302341-54 (antibody, human IgG1, kappa, V domains shown) VH: QVQLVQSGAEVKKPGASVKVSCKASGYTFTDYFMKWVRQAPGQGLEWMGVINPNQGDIFYNQKFKGRVTMTVDKSTSTAYMELSSLRSEDTAVYYCARGTDRALFAYWGQGTLVTVSS VL: DVVMTQTPLSSPVTLGQPASISCRSGQSIVHSSGNTYLEWYQQRPGQPPRLLIYKVSNRFSGVPDRFSGSGAGTDFTLKISRVEAEDLGVYYCFQGSHIPWTFGGGTKVEIKR
– | – | – | 0.946 | 3.29 | PR302341-52 (antibody, human IgG1, kappa, V domains shown) VH: QVQLVQSGAEVKKPGASVKVSCKASGYTFTDYFMKWVRQAPGQGLEWMGVINPNNADIFYNQKFKGRVTMTVDKSTSTAYMELSSLRSEDTAVYYCARGTDRALFAYWGQGTLVTVSS VL: DVVMTQTPLSSPVTLGQPASISCRSGQSIVHSSGNTYLEWYQQRPGQPPRLLIYKVSNRFSGVPDRFSGSGAGTDFTLKISRVEAEDLGVYYCFQGSHIPWTFGGGTKVEIKR
– | – | – | 1.7 | 5.36 | PR302341-53 (antibody, human IgG1, kappa, V domains shown) VH: QVQLVQSGAEVKKPGASVKVSCKASGYTFTDYFMKWVRQAPGQGLEWMGVINPNSGDIFYNQKFKGRVTMTVDKSTSTAYMELSSLRSEDTAVYYCARGTDRALFAYWGQGTLVTVSS VL: DVVMTQTPLSSPVTLGQPASISCRSGQSIVHSSGNTYLEWYQQRPGQPPRLLIYKVSNRFSGVPDRFSGSGAGTDFTLKISRVEAEDLGVYYCFQGSHIPWTFGGGTKVEIKR
– | – | – | 0.418 | – | PR302341-68 (antibody, human IgG1, kappa, V domains shown) VH: QVQLVQSGAEVKKPGASVKVSCKASGYTFTDYFMKWVRQAPGQGLEWMGVINPNNGDIFYNQKFKGRVTMTVDKSTSTAYMELSSLRSEDTAVYYCARGTDRALFAYWGQGTLVTVSS VL: DVVMTQTPLSSPVTLGQPASISCRSGQSIVHSEGNTYLEWYQQRPGQPPRLLIYKVSNRFSGVPDRFSGSGAGTDFTLKISRVEAEDLGVYYCFQGSHIPWTFGGGTKVEIKR
– | – | – | 1.48 | – | PR302341-50 (antibody, human IgG1, kappa, V domains shown) VH: QVQLVQSGAEVKKPGASVKVSCKASGYTFTDYFMKWVRQAPGQGLEWMGVINPNSGDIFYNQKFKGRVTMTVDKSTSTAYMELSSLRSEDTAVYYCARGTDRALFAYWGQGTLVTVSS VL: DVVMTQTPLSSPVTLGQPASISCRSGQSIVHSEGNTYLEWYQQRPGQPPRLLIYKVSNRFSGVPDRFSGSGAGTDFTLKISRVEAEDLGVYYCFQGSHIPWTFGGGTKVEIKR
– | – | – | 0.552 | – | PR302341-69 (antibody, human IgG1, kappa, V domains shown) VH: QVQLVQSGAEVKKPGASVKVSCKASGYTFTDYFMKWVRQAPGQGLEWMGVINPNNGDIFYNQKFKGRVTMTVDKSTSTAYMELSSLRSEDTAVYYCARGTDRALFAYWGQGTLVTVSS VL: DVVMTQTPLSSPVTLGQPASISCRSGQSIVHSSGNTYLEWYQQRPGQPPRLLIYKVSNRFSGVPDRFSGSGAGTDFTLKISRVEAEDLGVYYCFQGSHIPWTFGGGTKVEIKR

— patent US20260042834A1 (HBM ALPHA THERAPEUTICS, published 2026)
